Each sequence was assayed on Escherichia coli TOP10 (assay: shrunken log2 fold change of peptide-encoding DNA abundance (4.5 h post-induction vs induction); higher = less antimicrobial activity (less host growth inhibition)). Settings: time post-induction: 4.5 h; library: site-saturation at positions 5, 18, 19, 20.
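Also: peptides expressed intracellularly from a pBAD plasmid library in pooled LB shake-flask culture, induced with 0.3% L-arabinose, DNA abundance read by NGS, three biological replicates, DESeq2 with apeglm shrinkage.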

| Sequence | shrunken log2 fold change |
| --- | --- |
| RRIRDRPPRLPRPRPRPWFLPRP | 0.109 |
| RRIRPRPPRLPRPRPRPCPTPRP | 0.0557 |
| RRIRYRPPRLPRPRPRPESDPRP | 0.03 |
| RRIRWRPPRLPRPRPRPYIKPRP | -0.736 |
| RRIRHRPPRLPRPRPRPAHMPRP | -0.0835 |
| RRIRARPPRLPRPRPRPWRFPRP | 0.323 |
| RRIRCRPPRLPRPRPRPVDFPRP | -0.252 |
| RRIRSRPPRLPRPRPRPFIQPRP | -0.0991 |
| RRIRARPPRLPRPRPRPGHRPRP | 0.033 |
| RRIRHRPPRLPRPRPRPGVVPRP | -0.227 |
| RRIRVRPPRLPRPRPRPQIMPRP | -0.745 |
| RRIRARPPRLPRPRPRPTMSPRP | 0.159 |
| RRIRNRPPRLPRPRPRPVRAPRP | 0.545 |
| RRIRKRPPRLPRPRPRPMNIPRP | -0.213 |
| RRIRPRPPRLPRPRPRPFRLPRP | -0.465 |
| RRIRVRPPRLPRPRPRPFHNPRP | -0.0884 |
| RRIRPRPPRLPRPRPRPRLYPRP | 0.127 |
| RRIRMRPPRLPRPRPRPFFNPRP | -0.0839 |
| RRIRFRPPRLPRPRPRPPARPRP | 0.694 |
| RRIRRRPPRLPRPRPRPSVAPRP | 0.478 |
| RRIRERPPRLPRPRPRPEGPPRP | 0.23 |
| RRIRWRPPRLPRPRPRPSHTPRP | 0.0847 |
| RRIRLRPPRLPRPRPRPHHCPRP | -0.301 |
| RRIRWRPPRLPRPRPRPVHIPRP | -0.091 |
| RRIRKRPPRLPRPRPRPYDPPRP | 0.0113 |

| Sequence | shrunken log2 fold change |
| --- | --- |
| RRIRKRPPRLPRPRPRPIENPRP | -0.0721 |
| RRIRLRPPRLPRPRPRPELPPRP | -0.0217 |
| RRIRNRPPRLPRPRPRPQVKPRP | 0.0117 |
| RRIRYRPPRLPRPRPRPPDGPRP | 0.176 |
| RRIRTRPPRLPRPRPRPYYYPRP | -1.2 |
| RRIRARPPRLPRPRPRPFVSPRP | -0.00645 |
| RRIRKRPPRLPRPRPRPGIWPRP | 0.362 |
| RRIRHRPPRLPRPRPRPREKPRP | -0.0164 |
| RRIRCRPPRLPRPRPRPPNLPRP | -0.0983 |
| RRIRDRPPRLPRPRPRPFWVPRP | -0.222 |
| RRIRGRPPRLPRPRPRPSIAPRP | 0.669 |
| RRIRTRPPRLPRPRPRPHGPPRP | 0.157 |
| RRIRERPPRLPRPRPRPHRCPRP | -0.0136 |
| RRIRTRPPRLPRPRPRPNTMPRP | -0.675 |
| RRIRARPPRLPRPRPRPAPVPRP | 0.627 |
| RRIRCRPPRLPRPRPRPNVSPRP | 0.0773 |
| RRIRQRPPRLPRPRPRPIAFPRP | -0.168 |
| RRIRFRPPRLPRPRPRPAIIPRP | -0.149 |
| RRIRFRPPRLPRPRPRPEWRPRP | 0.531 |
| RRIRVRPPRLPRPRPRPFRYPRP | -0.0399 |
| RRIRMRPPRLPRPRPRPTIKPRP | 0.0703 |
| RRIRWRPPRLPRPRPRPNIQPRP | -0.0736 |
| RRIRARPPRLPRPRPRPLRSPRP | 0.914 |
| RRIRTRPPRLPRPRPRPWYIPRP | -0.146 |
| RRIRCRPPRLPRPRPRPTCVPRP | -0.0603 |

| Sequence | shrunken log2 fold change |
| --- | --- |
| RRIRWRPPRLPRPRPRPAPAPRP | 1.38 |
| RRIRYRPPRLPRPRPRPCNKPRP | -0.0167 |
| RRIRKRPPRLPRPRPRPMFAPRP | 0.485 |
| RRIRLRPPRLPRPRPRPIVSPRP | -0.0372 |
| RRIRPRPPRLPRPRPRPYQIPRP | -0.314 |
| RRIRFRPPRLPRPRPRPYDHPRP | -0.0263 |
| RRIRWRPPRLPRPRPRPVDDPRP | -0.0142 |
| RRIRDRPPRLPRPRPRPHGQPRP | 0.237 |
| RRIRMRPPRLPRPRPRPSICPRP | -0.176 |
| RRIRCRPPRLPRPRPRPKVDPRP | 0.0328 |
| RRIRPRPPRLPRPRPRPVLRPRP | 0.303 |
| RRIRFRPPRLPRPRPRPRDVPRP | 0.728 |
| RRIRMRPPRLPRPRPRPLMRPRP | 1.16 |
| RRIRSRPPRLPRPRPRPIGGPRP | -0.0412 |
| RRIRERPPRLPRPRPRPYSCPRP | 0.0107 |
| RRIRARPPRLPRPRPRPFHTPRP | -0.0492 |
| RRIRTRPPRLPRPRPRPSQLPRP | -0.453 |
| RRIRCRPPRLPRPRPRPGWWPRP | 0.054 |
| RRIRKRPPRLPRPRPRPMEPPRP | 0.0318 |
| RRIRNRPPRLPRPRPRPNTAPRP | 0.0213 |
| RRIRLRPPRLPRPRPRPQADPRP | 0.112 |
| RRIRPRPPRLPRPRPRPKIPPRP | -0.408 |
| RRIRNRPPRLPRPRPRPVKYPRP | -0.288 |
| RRIRMRPPRLPRPRPRPYGPPRP | 0.0478 |
| RRIRLRPPRLPRPRPRPEPTPRP | -0.00556 |
